Test [1] has as its target T1, human calcitonin receptor (human, UniProt P30988 25-474).
T1 construct: whole, on cells; also called hCTR; hCT
T1 sequence (looked up): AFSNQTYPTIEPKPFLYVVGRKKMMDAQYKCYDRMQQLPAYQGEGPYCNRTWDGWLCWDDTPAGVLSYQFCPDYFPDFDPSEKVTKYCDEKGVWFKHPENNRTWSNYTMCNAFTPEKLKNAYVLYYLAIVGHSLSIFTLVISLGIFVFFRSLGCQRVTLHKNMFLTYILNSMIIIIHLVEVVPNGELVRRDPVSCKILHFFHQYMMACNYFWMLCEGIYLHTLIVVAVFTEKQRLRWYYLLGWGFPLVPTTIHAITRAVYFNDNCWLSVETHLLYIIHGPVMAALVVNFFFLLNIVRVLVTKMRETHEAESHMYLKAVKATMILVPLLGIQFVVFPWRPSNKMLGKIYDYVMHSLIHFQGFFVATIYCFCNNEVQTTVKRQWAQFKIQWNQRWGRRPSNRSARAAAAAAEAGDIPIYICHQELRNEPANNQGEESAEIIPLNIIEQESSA
Description: ratio of IC50 at hCTR to IC50 at the human amylin receptor (reference). The procedure:
The resulting pellet was resuspended, homogenized and centrifuged (20.000 rpm, 15 min) in a buffer containing 20 mM Na-HEPES and 0.1 mM EDTA (pH 7.4, buffer 2). The resulting pellet was resuspended in buffer 2 and protein concentration was measured (BCA protein Assay, Pierce). The homogenate was kept cold during the whole procedure. The membranes were kept at −80° C. until use. The assay was performed in a 384 well Optiplate (PerkinElmer) in a total volume of 40 ul. Membranes were mixed with SPA beads. Final concentration of membranes 35 ng/μL final and SPA beads was 0.05 mg/well. Test-compounds were dissolved in DMSO and further diluted in assay buffer (50 mM Hepes, pH 7.4, 1 mM CaCl2, 5 mM MgCl₂, 0.1% OA and 0.02% Tween20). […] The final mixture was incubated with shaking at 400 rpm for 120 min at 25° C. prior to centrifugation (1500 rpm, 10 min). Samples were analyzed on TopCounter™ (Packard). The IC₅₀ was calculated using (one site binding competition analysis) GraphPad Prism5 as a measure of receptor affinity.
Membranes were prepared in the following way; the cells were rinsed with PBS and incubated with Versene for approximately 5 min before harvesting. The cells were flushed with PBS and the cell-suspension was centrifuged for 5 min at 1000 rpm. Cells were homogenized (Ultrathurrax) in a buffer containing 20 mM Na-HEPES and 10 mM EDTA (pH 7.4) and centrifuged at 20.000 rpm for 15 min. The resulting pellet was resuspended, homogenized and centrifuged (20.000 rpm, 15 min) in a buffer containing 20 mM Na-HEPES and 0.1 mM EDTA (pH 7.4, buffer 2). The resulting pellet was resuspended in buffer 2 and protein concentration was measured (BCA protein Assay, Pierce). The homogenate was kept cold during the whole procedure. The membranes were kept at −80° C. until use. Assay was performed in a 384 well Optiplate (PerkinElmer) in a total volume of 40 ul. Membranes were mixed with SPA beads.

Test [2] addresses T1, human calcitonin receptor. Description: SPA competition binding, membranes with human calcitonin receptor, displacement of 125I-calcitonin (Assay VII). The procedure:
Membranes were prepared in the following way; the cells were rinsed with PBS and incubated with Versene for approximately 5 min before harvesting. The cells were flushed with PBS and the cell-suspension was centrifuged for 5 min at 1000 rpm. Cells were homogenized (Ultrathurrax) in a buffer containing 20 mM Na-HEPES and 10 mM EDTA (pH 7.4) and centrifuged at 20.000 rpm for 15 min. The resulting pellet was resuspended, homogenized and centrifuged (20.000 rpm, 15 min) in a buffer containing 20 mM Na-HEPES and 0.1 mM EDTA (pH 7.4, buffer 2). The resulting pellet was resuspended in buffer 2 and protein concentration was measured (BCA protein Assay, Pierce). The homogenate was kept cold during the whole procedure. The membranes were kept at −80° C. until use. Assay was performed in a 384 well Optiplate (PerkinElmer) in a total volume of 40 ul. Membranes were mixed with SPA beads. Final concentration of membranes 35 ng/μL final and Final concentration of SPA beads was 0.05 mg/well. Test-compounds were dissolved in DMSO and further diluted in assay buffer (50 mM Hepes, pH 7.4, 1 mM CaCl2, 5 mM MgCl₂, 0.1% OA and 0.02% Tween20). […] The final mixture was incubated for 120 min with shaking at 400 rpm at 25° C. prior to centrifugation (1500 rpm, 10 min). Samples were analyzed on TopCounter™ (Packard). The […] was calculated using (one site binding competition analysis) GraphPad Prism5 as a measure of receptor affinity.
A general note: In a radioligand displacement assay an active substance lowers the binding of a labelled ligand.

Broadly, the IC50 is the midpoint of a concentration-inhibition curve.

Numbered stars: 1 amine (or outer) side, 2 acyl side, 3 side chain; on linkers, the order of the positions; unused ones are H or OH. Bridge positions count the residues as written; N and C are the ends. * marks the point of attachment. C20 diacid = O=C(O)CCCCCCCCCCCCCCCCCCC(=O)*; γGlu = O=C(O)[C@H](CCC(=O)[*:2])N[*:1]; AEEA = NCCOCCOCC(=O)O

B1: N^α1-[(4S)-4-carboxy-4-(19-carboxynonadecanoylamino)butanoyl]-[Glu14,Arg17,Pro21,Pro27]-h-amylin (peptide)
peptide: KCNTATCATQRLAEFLRHSSPNFGAIPSSTNVGSNTY
modifications: C20 diacid-gGlu on the alpha amino group of the N-terminal residue; disulfide bridge Cys2-Cys7; C-terminal amide
notes: also called compound 9
As for B1, the “Ratio hCT/hAmylin binding” value in test [1] turned out to be 8. For the same molecule, in test [2], the IC50 is 1.14 nM.

B2: N^α1-[(4S)-4-carboxy-4-(19-carboxynonadecanoylamino)butanoyl]-[Arg17,Pro21,Pro27,Pro31,Glu35]-h-amylin (peptide)
peptide: {C20 diacid-γGlu}-KCNTATCATQRLANFLRHSSPNFGAIPSSTPVGSETY-NH2
modifications: disulfide 2-7
SMILES: CC[C@H](C)[C@H](NC(=O)[C@H](C)NC(=O)CNC(=O)[C@H](Cc1ccccc1)NC(=O)[C@H](CC(N)=O)NC(=O)[C@@H]1CCCN1C(=O)[C@H](CO)NC(=O)[C@H](CO)NC(=O)[C@H](Cc1c[nH]cn1)NC(=O)[C@H](CCCNC(=N)N)NC(=O)[C@H](CC(C)C)NC(=O)[C@H](Cc1ccccc1)NC(=O)[C@H](CC(N)=O)NC(=O)[C@H](C)NC(=O)[C@H](CC(C)C)NC(=O)[C@H](CCCNC(=N)N)NC(=O)[C@H](CCC(N)=O)NC(=O)[C@@H](NC(=O)[C@H](C)NC(=O)[C@@H]1CSSC[C@H](NC(=O)[C@H](CCCCN)NC(=O)CC[C@H](NC(=O)CCCCCCCCCCCCCCCCCCC(=O)O)C(=O)O)C(=O)N[C@@H](CC(N)=O)C(=O)N[C@@H]([C@@H](C)O)C(=O)N[C@@H](C)C(=O)N[C@@H]([C@@H](C)O)C(=O)N1)[C@@H](C)O)C(=O)N1CCC[C@H]1C(=O)N[C@@H](CO)C(=O)N[C@@H](CO)C(=O)N[C@H](C(=O)N1CCC[C@H]1C(=O)N[C@H](C(=O)NCC(=O)N[C@@H](CO)C(=O)N[C@@H](CCC(=O)O)C(=O)N[C@H](C(=O)N[C@@H](Cc1ccc(O)cc1)C(N)=O)[C@@H](C)O)C(C)C)[C@@H](C)O
notes: also called compound 28
Turning to B2, in test [1], the “Ratio hCT/hAmylin binding” value was 20.5. The IC50 in test [2] is 12.5 nM.

B3: N^α1-[(4S)-4-carboxy-4-(19-carboxynonadecanoylamino)butanoyl]-[Asp14,Arg17,Pro21,Pro27,Pro37]-h-amylin (peptide)
peptide: {C20 diacid-γGlu}-KCNTATCATQRLADFLRHSSPNFGAIPSSTNVGSNTP-NH2
modifications: disulfide 2-7
SMILES: CC[C@H](C)[C@H](NC(=O)[C@H](C)NC(=O)CNC(=O)[C@H](Cc1ccccc1)NC(=O)[C@H](CC(N)=O)NC(=O)[C@@H]1CCCN1C(=O)[C@H](CO)NC(=O)[C@H](CO)NC(=O)[C@H](Cc1c[nH]cn1)NC(=O)[C@H](CCCNC(=N)N)NC(=O)[C@H](CC(C)C)NC(=O)[C@H](Cc1ccccc1)NC(=O)[C@H](CC(=O)O)NC(=O)[C@H](C)NC(=O)[C@H](CC(C)C)NC(=O)[C@H](CCCNC(=N)N)NC(=O)[C@H](CCC(N)=O)NC(=O)[C@@H](NC(=O)[C@H](C)NC(=O)[C@@H]1CSSC[C@H](NC(=O)[C@H](CCCCN)NC(=O)CC[C@H](NC(=O)CCCCCCCCCCCCCCCCCCC(=O)O)C(=O)O)C(=O)N[C@@H](CC(N)=O)C(=O)N[C@@H]([C@@H](C)O)C(=O)N[C@@H](C)C(=O)N[C@@H]([C@@H](C)O)C(=O)N1)[C@@H](C)O)C(=O)N1CCC[C@H]1C(=O)N[C@@H](CO)C(=O)N[C@@H](CO)C(=O)N[C@H](C(=O)N[C@@H](CC(N)=O)C(=O)N[C@H](C(=O)NCC(=O)N[C@@H](CO)C(=O)N[C@@H](CC(N)=O)C(=O)N[C@H](C(=O)N1CCC[C@H]1C(N)=O)[C@@H](C)O)C(C)C)[C@@H](C)O
notes: also called compound 10
In the case of B3, the “Ratio hCT/hAmylin binding” value in test [1] was found to be 1.2. The IC50 in test [2] is 0.099 nM.

B4: N^α1-[(4S)-4-carboxy-4-(19-carboxynonadecanoylamino)butanoyl]-[Arg17,Pro21,Pro27,Glu35]-h-amylin (peptide)
peptide: KCNTATCATQRLANFLRHSSPNFGAIPSSTNVGSETY
modifications: C20 diacid-gGlu on the alpha amino group of the N-terminal residue; disulfide bridge Cys2-Cys7; C-terminal amide
notes: also called compound 23
Consider B4, for which, in test [1], the “Ratio hCT/hAmylin binding” value turned out to be 25. Moreover, the concentration for half-maximal inhibition (IC50) in test [2] was determined as 21.8 nM.

B5: N^α1-[(4S)-4-carboxy-4-(19-carboxynonadecanoylamino)butanoyl]-[Glu14,Arg17,Pro21,Pro25,Pro28,Pro29,Pro37]-h-amylin (peptide)
peptide: {C20 diacid-γGlu}-KCNTATCATQRLAEFLRHSSPNFGPILPPTNVGSNTP-NH2
modifications: disulfide 2-7
SMILES: CC[C@H](C)[C@H](NC(=O)[C@@H]1CCCN1C(=O)CNC(=O)[C@H](Cc1ccccc1)NC(=O)[C@H](CC(N)=O)NC(=O)[C@@H]1CCCN1C(=O)[C@H](CO)NC(=O)[C@H](CO)NC(=O)[C@H](Cc1c[nH]cn1)NC(=O)[C@H](CCCNC(=N)N)NC(=O)[C@H](CC(C)C)NC(=O)[C@H](Cc1ccccc1)NC(=O)[C@H](CCC(=O)O)NC(=O)[C@H](C)NC(=O)[C@H](CC(C)C)NC(=O)[C@H](CCCNC(=N)N)NC(=O)[C@H](CCC(N)=O)NC(=O)[C@@H](NC(=O)[C@H](C)NC(=O)[C@@H]1CSSC[C@H](NC(=O)[C@H](CCCCN)NC(=O)CC[C@H](NC(=O)CCCCCCCCCCCCCCCCCCC(=O)O)C(=O)O)C(=O)N[C@@H](CC(N)=O)C(=O)N[C@@H]([C@@H](C)O)C(=O)N[C@@H](C)C(=O)N[C@@H]([C@@H](C)O)C(=O)N1)[C@@H](C)O)C(=O)N[C@@H](CC(C)C)C(=O)N1CCC[C@H]1C(=O)N1CCC[C@H]1C(=O)N[C@H](C(=O)N[C@@H](CC(N)=O)C(=O)N[C@H](C(=O)NCC(=O)N[C@@H](CO)C(=O)N[C@@H](CC(N)=O)C(=O)N[C@H](C(=O)N1CCC[C@H]1C(N)=O)[C@@H](C)O)C(C)C)[C@@H](C)O
notes: also called compound 4
B5: the “Ratio hCT/hAmylin binding” value in test [1] was found to be 2.1. For the same molecule, the 50% inhibitory concentration (IC50) in test [2] came to 0.688 nM.

B6: N^α1-[2-[2-[2-[[2-[2-[2-[[(4S)-4-carboxy-4-(19-carboxynonadecanoylamino)butanoyl]amino]ethoxy]ethoxy]acetyl]amino]ethoxy]ethoxy]acetyl]-[Glu14,Arg17,Pro21,Pro27 … (peptide)
peptide: {C20 diacid-γGlu-AEEA-AEEA}-KCNTATCATQRLAEFLRHSSPNFGAIPSSTNVGSNTP-NH2
modifications: disulfide 2-7
SMILES: CC[C@H](C)[C@H](NC(=O)[C@H](C)NC(=O)CNC(=O)[C@H](Cc1ccccc1)NC(=O)[C@H](CC(N)=O)NC(=O)[C@@H]1CCCN1C(=O)[C@H](CO)NC(=O)[C@H](CO)NC(=O)[C@H](Cc1c[nH]cn1)NC(=O)[C@H](CCCNC(=N)N)NC(=O)[C@H](CC(C)C)NC(=O)[C@H](Cc1ccccc1)NC(=O)[C@H](CCC(=O)O)NC(=O)[C@H](C)NC(=O)[C@H](CC(C)C)NC(=O)[C@H](CCCNC(=N)N)NC(=O)[C@H](CCC(N)=O)NC(=O)[C@@H](NC(=O)[C@H](C)NC(=O)[C@@H]1CSSC[C@H](NC(=O)[C@H](CCCCN)NC(=O)COCCOCCNC(=O)COCCOCCNC(=O)CC[C@H](NC(=O)CCCCCCCCCCCCCCCCCCC(=O)O)C(=O)O)C(=O)N[C@@H](CC(N)=O)C(=O)N[C@@H]([C@@H](C)O)C(=O)N[C@@H](C)C(=O)N[C@@H]([C@@H](C)O)C(=O)N1)[C@@H](C)O)C(=O)N1CCC[C@H]1C(=O)N[C@@H](CO)C(=O)N[C@@H](CO)C(=O)N[C@H](C(=O)N[C@@H](CC(N)=O)C(=O)N[C@H](C(=O)NCC(=O)N[C@@H](CO)C(=O)N[C@@H](CC(N)=O)C(=O)N[C@H](C(=O)N1CCC[C@H]1C(N)=O)[C@@H](C)O)C(C)C)[C@@H](C)O
notes: also called compound 20
B6: the “Ratio hCT/hAmylin binding” value in test [1] stood at 3.6. The IC50 in test [2] turned out to be 0.787 nM.

B7: N^α1-[(4S)-4-carboxy-4-(19-carboxynonadecanoylamino)butanoyl]-[Arg17,Pro21,Pro27,Arg34]-h-amylin (peptide)
peptide: KCNTATCATQRLANFLRHSSPNFGAIPSSTNVGRNTY
modifications: C20 diacid-gGlu on the alpha amino group of the N-terminal residue; disulfide bridge Cys2-Cys7; C-terminal amide
notes: also called compound 39
As to B7, in test [1], the “Ratio hCT/hAmylin binding” value came out at 29. In test [2], the 50% inhibitory concentration (IC50) is 19.3 nM.

B8: N^α1-[(4S)-4-carboxy-4-(19-carboxynonadecanoylamino)butanoyl]-[Arg17,Pro21,Pro27,His34]-h-amylin (peptide)
peptide: KCNTATCATQRLANFLRHSSPNFGAIPSSTNVGHNTY
modifications: C20 diacid-gGlu on the alpha amino group of the N-terminal residue; disulfide bridge Cys2-Cys7; C-terminal amide
notes: also called compound 40
For the molecule B8, the “Ratio hCT/hAmylin binding” value in test [1] amounted to 31.1. Moreover, in test [2], the IC50 turned out to be 17.1 nM.

The record behind these values is patent US20140087995A1 (published 2014).
